This note sets out measurements from article PMC12311895, “Single-Molecule Protein Interactions and Unfolding Revealed by Plasmon-Enhanced Fluorescence” (Analytical Chemistry, 2025).

Where no end group is shown, it is not given here.

This assay deals with T1, MBP-PDZ protein (Erbin PDZ) with a single cysteine, conjugated to DNA (UniProt Q96RT1 1321-1410, ATTO 532 (labelled with ATTO 532-NHS); amine-modified DNA oligonucleotide coupled through sulfo-SMCC to the single cysteine between MBP and PDZ).
T1 construct: stretch between MBP and the PDZ domain that holds the single introduced cysteine; Erbin PDZ domain; Held on DNA-coated 40 by 80 nm gold nanorods by DNA hybridisation; About 50% of the protein in the conjugation mixture carried no DNA; also called Erbin PDZ protein; PDZ-DNA; not shown: MBP, N-terminal, kept
Put plainly: single-molecule plasmon-enhanced fluorescence microscopy (TIRF); MBP-PDZ held on gold nanorods (40 by 80 nm) by DNA hybridisation, particles immobilised on glass; ATTO 655-labeled peptide in solution; 637 nm laser; 20 ms exposure; koff from bright times (double exponential fit), kon from event frequency against proteins per particle. The note with it: both partners purified.

Broadly, the Kd is the equilibrium constant for the complex coming apart. Broadly, the kon is a measure of how fast the partners come together.

With CGAGRGSIDTWV (also: ATTO 655 label (site not given here)) [ATTO 655-labeled target peptide], the Kd is 1 to 5.1 µM and the kon amounted to 1.2e+07 M⁻¹ s⁻¹.
